In the supplement of paper PMC9112550, “Optimization of the antimicrobial peptide Bac7 by deep mutational scanning” (BMC Biology, 2022):

Each sequence was assayed on Escherichia coli TOP10 (assay: shrunken log2 fold change of peptide-encoding DNA abundance (4.5 h post-induction vs induction); higher = less antimicrobial activity (less host growth inhibition)). Details: time post-induction: 4.5 h; library: site-saturation at positions 5, 18, 19, 20.
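Also: peptides expressed intracellularly from a pBAD plasmid library in pooled LB shake-flask culture, induced with 0.3% L-arabinose, DNA abundance read by NGS, three biological replicates, DESeq2 with apeglm shrinkage.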

Row | Sequence | shrunken log2 fold change
1 | RRIRWRPPRLPRPRPRPHICPRP | 0.00277
2 | RRIRCRPPRLPRPRPRPLNSPRP | -0.605
3 | RRIRGRPPRLPRPRPRPHADPRP | 1.68
4 | RRIRMRPPRLPRPRPRPPSYPRP | 0.358
5 | RRIRVRPPRLPRPRPRPLLLPRP | -0.52
6 | RRIRGRPPRLPRPRPRPTMYPRP | 0.032
7 | RRIRWRPPRLPRPRPRPWMDPRP | -0.0803
8 | RRIRIRPPRLPRPRPRPLTKPRP | -0.94
9 | RRIRNRPPRLPRPRPRPMQFPRP | -0.466
10 | RRIRQRPPRLPRPRPRPKYEPRP | 0.0304
11 | RRIRTRPPRLPRPRPRPGCMPRP | -0.0219
12 | RRIRWRPPRLPRPRPRPKKRPRP | 0.426
13 | RRIRVRPPRLPRPRPRPMYWPRP | -0.0619
14 | RRIRRRPPRLPRPRPRPRKAPRP | 0.885
15 | RRIRARPPRLPRPRPRPWPPPRP | 0.887
16 | RRIRKRPPRLPRPRPRPFTRPRP | 0.0464
17 | RRIRDRPPRLPRPRPRPVRFPRP | 0.189
18 | RRIRERPPRLPRPRPRPFQNPRP | 0.02
19 | RRIRSRPPRLPRPRPRPRFYPRP | -0.642
20 | RRIRNRPPRLPRPRPRPLRAPRP | 0.672
21 | RRIRFRPPRLPRPRPRPVHPPRP | 0.037
22 | RRIRVRPPRLPRPRPRPLINPRP | -0.354
23 | RRIRRRPPRLPRPRPRPGGFPRP | 0.36
24 | RRIRSRPPRLPRPRPRPERHPRP | 0.0386
25 | RRIRKRPPRLPRPRPRPRAYPRP | -0.382

Row | Sequence | shrunken log2 fold change
26 | RRIRERPPRLPRPRPRPPSRPRP | 0.577
27 | RRIRDRPPRLPRPRPRPTIRPRP | 0.124
28 | RRIRCRPPRLPRPRPRPGYTPRP | 0.00337
29 | RRIRTRPPRLPRPRPRPFLVPRP | -0.404
30 | RRIRVRPPRLPRPRPRPHWVPRP | -0.152
31 | RRIRDRPPRLPRPRPRPDFVPRP | 1.35
32 | RRIRQRPPRLPRPRPRPKNPPRP | -0.26
33 | RRIRKRPPRLPRPRPRPWTLPRP | 0.00115
34 | RRIRLRPPRLPRPRPRPRANPRP | 0.126
35 | RRIRFRPPRLPRPRPRPKVAPRP | 0.192
36 | RRIRIRPPRLPRPRPRPAQWPRP | 0.211
37 | RRIRYRPPRLPRPRPRPKSKPRP | -0.428
38 | RRIRWRPPRLPRPRPRPKLRPRP | 0.132
39 | RRIRTRPPRLPRPRPRPKWWPRP | 0.683
40 | RRIRWRPPRLPRPRPRPYWFPRP | -0.0484
41 | RRIRQRPPRLPRPRPRPDIFPRP | -0.104
42 | RRIRSRPPRLPRPRPRPNTHPRP | -0.413
43 | RRIRGRPPRLPRPRPRPRLTPRP | 0.948
44 | RRIRERPPRLPRPRPRPCVCPRP | -0.132
45 | RRIRRRPPRLPRPRPRPTSVPRP | 0.227
46 | RRIRQRPPRLPRPRPRPDAFPRP | 0.141
47 | RRIRDRPPRLPRPRPRPQSDPRP | -0.0119
48 | RRIRQRPPRLPRPRPRPDVKPRP | -0.0135
49 | RRIRDRPPRLPRPRPRPTDVPRP | -0.0358
50 | RRIRPRPPRLPRPRPRPECTPRP | 0.0119

Row | Sequence | shrunken log2 fold change
51 | RRIRPRPPRLPRPRPRPAQCPRP | 0.148
52 | RRIRCRPPRLPRPRPRPSYAPRP | -0.544
53 | RRIRWRPPRLPRPRPRPVMLPRP | -0.0383
54 | RRIRTRPPRLPRPRPRPVFNPRP | -0.65
55 | RRIRFRPPRLPRPRPRPHKEPRP | -0.203
56 | RRIRSRPPRLPRPRPRPPGGPRP | 0.724
57 | RRIRHRPPRLPRPRPRPDYEPRP | 0.00408
58 | RRIRVRPPRLPRPRPRPEADPRP | 0.0974
59 | RRIRNRPPRLPRPRPRPTMQPRP | 0.0135
60 | RRIRHRPPRLPRPRPRPRTQPRP | 0.0696
61 | RRIRHRPPRLPRPRPRPQLKPRP | 0.114
62 | RRIRARPPRLPRPRPRPGDRPRP | -0.00146
63 | RRIRPRPPRLPRPRPRPAILPRP | -0.339
64 | RRIRHRPPRLPRPRPRPDLFPRP | -0.00544
65 | RRIRGRPPRLPRPRPRPNTCPRP | 0.103
66 | RRIRSRPPRLPRPRPRPGEKPRP | -0.000687
67 | RRIRYRPPRLPRPRPRPRGSPRP | -0.285
68 | RRIRDRPPRLPRPRPRPFNRPRP | 0.00902
69 | RRIRMRPPRLPRPRPRPSLEPRP | 0.895
70 | RRIRHRPPRLPRPRPRPPSNPRP | 0.0232
71 | RRIRPRPPRLPRPRPRPYQCPRP | -0.0702
72 | RRIRGRPPRLPRPRPRPVPAPRP | 1
73 | RRIRARPPRLPRPRPRPEPMPRP | 0.44
74 | RRIRVRPPRLPRPRPRPNTEPRP | -0.665
75 | RRIRCRPPRLPRPRPRPKCDPRP | -0.135

Row | Sequence | shrunken log2 fold change
76 | RRIRMRPPRLPRPRPRPARVPRP | 1.28
77 | RRIRGRPPRLPRPRPRPCIRPRP | 0.174
78 | RRIRKRPPRLPRPRPRPTNDPRP | 0.191
79 | RRIRERPPRLPRPRPRPDMWPRP | -0.0874
80 | RRIRSRPPRLPRPRPRPSRIPRP | -0.106
81 | RRIRKRPPRLPRPRPRPMYHPRP | -0.0356
82 | RRIRPRPPRLPRPRPRPIQNPRP | -0.11
83 | RRIRYRPPRLPRPRPRPGQDPRP | -0.346
84 | RRIRKRPPRLPRPRPRPQFYPRP | -0.555
85 | RRIRRRPPRLPRPRPRPMAQPRP | 0.318
86 | RRIRGRPPRLPRPRPRPKPSPRP | 1.1
87 | RRIRSRPPRLPRPRPRPSPGPRP | 0.312
88 | RRIRWRPPRLPRPRPRPWADPRP | 0.0109
89 | RRIRDRPPRLPRPRPRPKDFPRP | -0.00804
90 | RRIRARPPRLPRPRPRPGQHPRP | -0.0452
91 | RRIRLRPPRLPRPRPRPGDLPRP | 0.00844
92 | RRIRFRPPRLPRPRPRPQHWPRP | 0.0645
93 | RRIRARPPRLPRPRPRPDQKPRP | 0.442
94 | RRIRYRPPRLPRPRPRPPVNPRP | -0.153
95 | RRIRARPPRLPRPRPRPNFWPRP | 0.352
96 | RRIRFRPPRLPRPRPRPRWGPRP | 0.143
97 | RRIRCRPPRLPRPRPRPLIWPRP | -0.177
98 | RRIRCRPPRLPRPRPRPCSTPRP | -0.245
99 | RRIRWRPPRLPRPRPRPQAPPRP | -0.164
100 | RRIRMRPPRLPRPRPRPEWGPRP | 0.437

Row | Sequence | shrunken log2 fold change
101 | RRIRCRPPRLPRPRPRPCSHPRP | -1.29
102 | RRIRRRPPRLPRPRPRPPINPRP | 0.0262
103 | RRIRCRPPRLPRPRPRPERAPRP | 0.675
104 | RRIRKRPPRLPRPRPRPKRPPRP | 0.552
105 | RRIRSRPPRLPRPRPRPDYHPRP | -0.271
106 | RRIRCRPPRLPRPRPRPLKIPRP | -0.511
107 | RRIRKRPPRLPRPRPRPWSMPRP | -0.0905
108 | RRIRYRPPRLPRPRPRPALNPRP | -0.541
109 | RRIRSRPPRLPRPRPRPIDFPRP | -0.0652
110 | RRIRFRPPRLPRPRPRPPPWPRP | 0.961
111 | RRIRSRPPRLPRPRPRPVIHPRP | -0.127
112 | RRIRYRPPRLPRPRPRPQVDPRP | -0.205
113 | RRIRFRPPRLPRPRPRPPETPRP | 0.261
114 | RRIRMRPPRLPRPRPRPRNDPRP | 0.193
115 | RRIRMRPPRLPRPRPRPIQAPRP | 0.295
116 | RRIRIRPPRLPRPRPRPTAMPRP | -0.191
117 | RRIRDRPPRLPRPRPRPRFQPRP | 0.491
118 | RRIRIRPPRLPRPRPRPQWMPRP | -0.103
119 | RRIRSRPPRLPRPRPRPNDHPRP | -0.322
120 | RRIRVRPPRLPRPRPRPYFSPRP | -0.267
121 | RRIRNRPPRLPRPRPRPKAYPRP | 0.0121
122 | RRIRQRPPRLPRPRPRPRASPRP | 0.392
123 | RRIRDRPPRLPRPRPRPLSHPRP | -0.0109
124 | RRIRLRPPRLPRPRPRPPGSPRP | 0.226
125 | RRIRCRPPRLPRPRPRPDRCPRP | 0.16

Row | Sequence | shrunken log2 fold change
126 | RRIRGRPPRLPRPRPRPIGKPRP | 0.035
127 | RRIRPRPPRLPRPRPRPFRCPRP | 0.12
128 | RRIRERPPRLPRPRPRPMKQPRP | -0.0573
129 | RRIRSRPPRLPRPRPRPQEWPRP | 0.0425
130 | RRIRPRPPRLPRPRPRPNQEPRP | 0.0875
131 | RRIRQRPPRLPRPRPRPVWNPRP | -0.344
132 | RRIRKRPPRLPRPRPRPKITPRP | 0.0975
133 | RRIRGRPPRLPRPRPRPNFHPRP | 0.611
134 | RRIRPRPPRLPRPRPRPMSKPRP | -0.276
135 | RRIRPRPPRLPRPRPRPGQSPRP | 0.421
136 | RRIRFRPPRLPRPRPRPFVEPRP | -0.27
137 | RRIRLRPPRLPRPRPRPAQPPRP | 0.0855
138 | RRIRTRPPRLPRPRPRPQDWPRP | 0.209
139 | RRIRYRPPRLPRPRPRPIWAPRP | -0.089
140 | RRIRFRPPRLPRPRPRPITGPRP | -0.107
141 | RRIRKRPPRLPRPRPRPATHPRP | 0.426
142 | RRIRERPPRLPRPRPRPGKMPRP | 0.0204
143 | RRIRDRPPRLPRPRPRPSDIPRP | -0.0124
144 | RRIRRRPPRLPRPRPRPSYDPRP | -0.434
145 | RRIRSRPPRLPRPRPRPWNKPRP | -0.0158
146 | RRIRWRPPRLPRPRPRPPPSPRP | 0.794
147 | RRIRVRPPRLPRPRPRPWWSPRP | 0.0392
148 | RRIRPRPPRLPRPRPRPFKVPRP | -0.0681
149 | RRIRARPPRLPRPRPRPHADPRP | 0.981
150 | RRIRMRPPRLPRPRPRPQSLPRP | -0.0682
